Laboratory results published in US20240287154A1, “MC3R AGONIST PEPTIDES” (The Regents of the University of Michigan, priority 2021, published 2024).
Non-standard residues stand in square brackets, D forms with d. d(αMeW) = C[C@@](N)(Cc1c[nH]c2ccccc12)C(=O)O; Phe(4-F) = N[C@@H](Cc1ccc(F)cc1)C(=O)O; Phe(4-I) = N[C@@H](Cc1ccc(I)cc1)C(=O)O; 2Nal = N[C@@H](Cc1ccc2ccccc2c1)C(=O)O; d2Nal = N[C@H](Cc1ccc2ccccc2c1)C(=O)O; dTic = O=C(O)[C@H]1Cc2ccccc2CN1; NMeK = CN[C@@H](CCCCN)C(=O)O; NMeA = CN[C@@H](C)C(=O)O; Nle = CCCC[C@H](N)C(=O)O; dAbu = CC[C@@H](N)C(=O)O; Aib = CC(C)(N)C(=O)O

Target: human MC3R (human, UniProt P41968 1-323)
Sequence (P41968 whole entry): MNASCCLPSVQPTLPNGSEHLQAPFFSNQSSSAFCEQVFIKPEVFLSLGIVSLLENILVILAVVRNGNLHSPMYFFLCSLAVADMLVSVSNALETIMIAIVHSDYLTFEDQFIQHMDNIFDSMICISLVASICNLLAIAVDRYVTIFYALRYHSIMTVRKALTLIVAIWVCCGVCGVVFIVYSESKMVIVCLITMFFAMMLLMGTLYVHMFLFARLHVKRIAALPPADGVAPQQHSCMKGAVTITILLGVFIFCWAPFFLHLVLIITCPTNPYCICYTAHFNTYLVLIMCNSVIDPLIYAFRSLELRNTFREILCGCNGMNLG
Assay: cell-based or functional assay

MC3R cAMP (EC50)	MC3R selectivity (relative to MC4R)	Binder
2.8 µM	0.01	Ac-[Nle][dA]H[Phe(4-I)][dR]WDRFG-OH (SMILES CCCC[C@H](NC(C)=O)C(=O)N[C@H](C)C(=O)N[C@@H](Cc1c[nH]cn1)C(=O)N[C@@H](Cc1ccc(I)cc1)C(=O)N[C@H](CCCNC(=N)N)C(=O)N[C@@H](Cc1c[nH]c2ccccc12)C(=O)N[C@@H](CC(=O)O)C(=O)N[C@@H](CCCNC(=N)N)C(=O)N[C@@H](Cc1ccccc1)C(=O)NCC(=O)O) [CTX-1501]
0.124 µM	214	Ac-[Nle][dA]H[Phe(4-I)]R[dF]DRFG-OH (SMILES CCCC[C@H](NC(C)=O)C(=O)N[C@H](C)C(=O)N[C@@H](Cc1c[nH]cn1)C(=O)N[C@@H](Cc1ccc(I)cc1)C(=O)N[C@@H](CCCNC(=N)N)C(=O)N[C@H](Cc1ccccc1)C(=O)N[C@@H](CC(=O)O)C(=O)N[C@@H](CCCNC(=N)N)C(=O)N[C@@H](Cc1ccccc1)C(=O)NCC(=O)O) [CTX-1503]
3.92 µM		Ac-[Nle][dA][NMeA]FR[dW]DRFG-OH (SMILES CCCC[C@H](NC(C)=O)C(=O)N[C@H](C)C(=O)N(C)[C@@H](C)C(=O)N[C@@H](Cc1ccccc1)C(=O)N[C@@H](CCCNC(=N)N)C(=O)N[C@H](Cc1c[nH]c2ccccc12)C(=O)N[C@@H](CC(=O)O)C(=O)N[C@@H](CCCNC(=N)N)C(=O)N[C@@H](Cc1ccccc1)C(=O)NCC(=O)O) [CTX-1190]
0.0417 µM	5320	Ac-[Nle][dA]HFK[dW]DRFG-OH (SMILES CCCC[C@H](NC(C)=O)C(=O)N[C@H](C)C(=O)N[C@@H](Cc1c[nH]cn1)C(=O)N[C@@H](Cc1ccccc1)C(=O)N[C@@H](CCCCN)C(=O)N[C@H](Cc1c[nH]c2ccccc12)C(=O)N[C@@H](CC(=O)O)C(=O)N[C@@H](CCCNC(=N)N)C(=O)N[C@@H](Cc1ccccc1)C(=O)NCC(=O)O) [CTX-1523]
0.0048 µM	82	Ac-[Nle][dA]HFR[dW]FRFG-OH (SMILES CCCC[C@H](NC(C)=O)C(=O)N[C@H](C)C(=O)N[C@@H](Cc1c[nH]cn1)C(=O)N[C@@H](Cc1ccccc1)C(=O)N[C@@H](CCCNC(=N)N)C(=O)N[C@H](Cc1c[nH]c2ccccc12)C(=O)N[C@@H](Cc1ccccc1)C(=O)N[C@@H](CCCNC(=N)N)C(=O)N[C@@H](Cc1ccccc1)C(=O)NCC(=O)O) [CTX-1529]
0.0343 µM	49	Ac-YVE[dAbu]H[Phe(4-I)]R[dW]DRFG-OH (SMILES CC[C@@H](NC(=O)[C@H](CCC(=O)O)NC(=O)[C@@H](NC(=O)[C@H](Cc1ccc(O)cc1)NC(C)=O)C(C)C)C(=O)N[C@@H](Cc1c[nH]cn1)C(=O)N[C@@H](Cc1ccc(I)cc1)C(=O)N[C@@H](CCCNC(=N)N)C(=O)N[C@H](Cc1c[nH]c2ccccc12)C(=O)N[C@@H](CC(=O)O)C(=O)N[C@@H](CCCNC(=N)N)C(=O)N[C@@H](Cc1ccccc1)C(=O)NCC(=O)O) [CTX-1194]
0.181 µM	23	Ac-[Nle][dA]HFR[d(αMeW)]DRFG-OH (SMILES CCCC[C@H](NC(C)=O)C(=O)N[C@H](C)C(=O)N[C@@H](Cc1c[nH]cn1)C(=O)N[C@@H](Cc1ccccc1)C(=O)N[C@@H](CCCNC(=N)N)C(=O)N[C@](C)(Cc1c[nH]c2ccccc12)C(=O)N[C@@H](CC(=O)O)C(=O)N[C@@H](CCCNC(=N)N)C(=O)N[C@@H](Cc1ccccc1)C(=O)NCC(=O)O) [CTX-1510]
0.0131 µM	804	Ac-[Nle][dA]H[2Nal]R[dW]DRFG-OH (SMILES CCCC[C@H](NC(C)=O)C(=O)N[C@H](C)C(=O)N[C@@H](Cc1c[nH]cn1)C(=O)N[C@@H](Cc1ccc2ccccc2c1)C(=O)N[C@@H](CCCNC(=N)N)C(=O)N[C@H](Cc1c[nH]c2ccccc12)C(=O)N[C@@H](CC(=O)O)C(=O)N[C@@H](CCCNC(=N)N)C(=O)N[C@@H](Cc1ccccc1)C(=O)NCC(=O)O) [CTX-1512]
0.0067 µM	184	Ac-[Nle][dA]H[Phe(4-I)]R[d2Nal]DRFG-OH (SMILES CCCC[C@H](NC(C)=O)C(=O)N[C@H](C)C(=O)N[C@@H](Cc1c[nH]cn1)C(=O)N[C@@H](Cc1ccc(I)cc1)C(=O)N[C@@H](CCCNC(=N)N)C(=O)N[C@H](Cc1ccc2ccccc2c1)C(=O)N[C@@H](CC(=O)O)C(=O)N[C@@H](CCCNC(=N)N)C(=O)N[C@@H](Cc1ccccc1)C(=O)NCC(=O)O) [CTX-1502]
	1	Ac-[Nle][dA]H[Phe(4-I)]R[dTic]DRFG-OH [CTX-1504]
0.0019 µM	1560	Ac-[Nle][dA]H[Phe(4-F)]R[dW]DRFG-OH (SMILES CCCC[C@H](NC(C)=O)C(=O)N[C@H](C)C(=O)N[C@@H](Cc1c[nH]cn1)C(=O)N[C@@H](Cc1ccc(F)cc1)C(=O)N[C@@H](CCCNC(=N)N)C(=O)N[C@H](Cc1c[nH]c2ccccc12)C(=O)N[C@@H](CC(=O)O)C(=O)N[C@@H](CCCNC(=N)N)C(=O)N[C@@H](Cc1ccccc1)C(=O)NCC(=O)O) [CTX-1518]
0.184 µM	51	Ac-YVE[Aib]H[Phe(4-I)]R[dW]DRFG-OH (SMILES CC(=O)N[C@@H](Cc1ccc(O)cc1)C(=O)N[C@H](C(=O)N[C@@H](CCC(=O)O)C(=O)NC(C)(C)C(=O)N[C@@H](Cc1c[nH]cn1)C(=O)N[C@@H](Cc1ccc(I)cc1)C(=O)N[C@@H](CCCNC(=N)N)C(=O)N[C@H](Cc1c[nH]c2ccccc12)C(=O)N[C@@H](CC(=O)O)C(=O)N[C@@H](CCCNC(=N)N)C(=O)N[C@@H](Cc1ccccc1)C(=O)NCC(=O)O)C(C)C) [CTX-1195]
3.54 µM	1	Ac-[Nle][dA][NMeK]FR[dW]DRFG-OH (SMILES CCCC[C@H](NC(C)=O)C(=O)N[C@H](C)C(=O)N(C)[C@@H](CCCCN)C(=O)N[C@@H](Cc1ccccc1)C(=O)N[C@@H](CCCNC(=N)N)C(=O)N[C@H](Cc1c[nH]c2ccccc12)C(=O)N[C@@H](CC(=O)O)C(=O)N[C@@H](CCCNC(=N)N)C(=O)N[C@@H](Cc1ccccc1)C(=O)NCC(=O)O) [CTX-1189]
0.289 µM		Ac-[Nle][dA]HFR[dW][dF]RFG-OH (SMILES CCCC[C@H](NC(C)=O)C(=O)N[C@H](C)C(=O)N[C@@H](Cc1c[nH]cn1)C(=O)N[C@@H](Cc1ccccc1)C(=O)N[C@@H](CCCNC(=N)N)C(=O)N[C@H](Cc1c[nH]c2ccccc12)C(=O)N[C@H](Cc1ccccc1)C(=O)N[C@@H](CCCNC(=N)N)C(=O)N[C@@H](Cc1ccccc1)C(=O)NCC(=O)O) [CTX-1530]
0.0019 µM	182	Ac-[Nle][dA]HFR[dW]ARFG-OH (SMILES CCCC[C@H](NC(C)=O)C(=O)N[C@H](C)C(=O)N[C@@H](Cc1c[nH]cn1)C(=O)N[C@@H](Cc1ccccc1)C(=O)N[C@@H](CCCNC(=N)N)C(=O)N[C@H](Cc1c[nH]c2ccccc12)C(=O)N[C@@H](C)C(=O)N[C@@H](CCCNC(=N)N)C(=O)N[C@@H](Cc1ccccc1)C(=O)NCC(=O)O) [CTX-1528]
0.0012 µM	7.5	H-YV[Nle]AHFR[dW]D-NH2 (SMILES CCCC[C@H](NC(=O)[C@@H](NC(=O)[C@@H](N)Cc1ccc(O)cc1)C(C)C)C(=O)N[C@@H](C)C(=O)N[C@@H](Cc1c[nH]cn1)C(=O)N[C@@H](Cc1ccccc1)C(=O)N[C@@H](CCCNC(=N)N)C(=O)N[C@H](Cc1c[nH]c2ccccc12)C(=O)N[C@@H](CC(=O)O)C(N)=O) [CTX-1129]
0.001 µM	667	YVXXHFRWDRFG (Nle at 3; D-Abu at 4; D-Trp at 8) [CTX-1135]
0.0039 µM	470	Ac-[Nle][dAbu]H[Phe(4-I)]R[dW]DRFG-OH (SMILES CCCC[C@H](NC(C)=O)C(=O)N[C@H](CC)C(=O)N[C@@H](Cc1c[nH]cn1)C(=O)N[C@@H](Cc1ccc(I)cc1)C(=O)N[C@@H](CCCNC(=N)N)C(=O)N[C@H](Cc1c[nH]c2ccccc12)C(=O)N[C@@H](CC(=O)O)C(=O)N[C@@H](CCCNC(=N)N)C(=O)N[C@@H](Cc1ccccc1)C(=O)NCC(=O)O) [CTX-1191]
	1	Ac-[Nle][dA]P[Phe(4-I)]R[dF]DRFG-OH (SMILES CCCC[C@H](NC(C)=O)C(=O)N[C@H](C)C(=O)N1CCC[C@H]1C(=O)N[C@@H](Cc1ccc(I)cc1)C(=O)N[C@@H](CCCNC(=N)N)C(=O)N[C@H](Cc1ccccc1)C(=O)N[C@@H](CC(=O)O)C(=O)N[C@@H](CCCNC(=N)N)C(=O)N[C@@H](Cc1ccccc1)C(=O)NCC(=O)O) [CTX-1506]
0.0135 µM	250	Ac-[Nle][dA]R[Phe(4-I)]R[dW]DRFG-OH (SMILES CCCC[C@H](NC(C)=O)C(=O)N[C@H](C)C(=O)N[C@@H](CCCNC(=N)N)C(=O)N[C@@H](Cc1ccc(I)cc1)C(=O)N[C@@H](CCCNC(=N)N)C(=O)N[C@H](Cc1c[nH]c2ccccc12)C(=O)N[C@@H](CC(=O)O)C(=O)N[C@@H](CCCNC(=N)N)C(=O)N[C@@H](Cc1ccccc1)C(=O)NCC(=O)O) [CTX-1197]
